According to patent US6932973B2, “Peptides which stimulate the expression of the cytokines of inflammation and promote tissue regeneration” (Centre National de la Recherche Scientifique—CNRS, priority 1999, dated 2005):
“Also recorded” adds a separate entry of the source. Where two headings read alike, the source gives them in different places.

Assays:
[1] = test system: human mononucleated cells of the peripheral blood (PBMCs); assay: Incorporation of tritiated thymidine in PBMCs (proliferation); assay type: cell-based; settings: for activation response of PBMCs compared to the HARP protein: 1 ng/ml HARP, 1 μg/ml peptides (FIG. 6)
Description: The PBMCs were cultured for 7 days in RPMI culture medium containing 10% fetal calf serum in the absence of or in the presence of 1 ng/ml HARP protein or 1 μg/ml of peptides 1 or 2. The incorporation of tritiated thymidine was determined as described above.
Human mononucleated cells originating from different healthy donors were isolated from peripheral blood after centrifugation on a Ficoll-Hypaque pad (Pharmacia Biotech) in accordance with the manufacturer's instructions. The cells were washed then cultured in RPMI 1640 medium supplemented by 10% heat-inactivated fetal calf serum (56° C., 30 min), 100 units/ml of penicillin and 100 μg/ml of streptomycin. The cells were inoculated at the rate of 10^6 cells per ml in a 96-well (round bottoms) culture plate (Costar). They were cultured for 7 days in the presence or not of human recombinant HARP protein produced in E. coli at the concentration of 100 ng/ml. In the last 18 hours of culture, 1 μCi of tritiated thymidine was added to each of the wells. The radioactivity incorporated in the cell nuclei was then measured using a scintillation counter.

IL-6 = assay: Expression of IL-6 by PBMCs (ELISA); assay type: cell-based, human
Description: (§1) Quantitative determination of these cytokines was performed using an ELISA test from R&D.
Quantitative determination of these cytokines was performed after 7 days of incubation using an ELISA test from R&D.
(§2) The cells were isolated from peripheral blood of normal subjects (blood donors) and collected in a Vacutainer tube containing EDTA. Mononucleated cells were separated by ficoll gradient, counted and adjusted to 10^6 per ml. The cells were incubated for 3 or 7 days at 37° C. in humid atmosphere with 5% CO2 in the presence of variable concentrations of HARP ranging from 1 to 1000 ng/ml or other peptides which are mentioned in the legends of the figures.

soleus muscle = assay type: in vivo, Wistar rat; settings: 1 μg injected in 50 μl into crushed rat soleus, 4 days
HUVEC cells = assay: Mitogenic activity on HUVEC cells (cell counting); assay type: cell-based; settings: wells coated with 100 ng/ml, 72 hours of culture, triplicate
Description: The cells used were HUVEC cells (Clonetics) used between passages 1 to 5. Each of the wells of a 48-well culture plate (Costar) was incubated for 1 night at 4° C. with a solution of HARP (100 ng/ml), of purified HARP peptide (100 ng/ml) or solely the negative control buffer. After rinsing the wells with a PBS solution, the cells were inoculated at the rate of 2×10^4 cells per cm^2 in the DMEM culture medium containing 2% of fetal calf serum. Each quantitative determination was performed in triplicate.
Induction of cellular proliferation was assessed by counting the cells after 72 hours of culture.

[2] = test system: PBMCs treated by tetanus toxin
[3] = test system: cytokines of inflammation (TNF-alpha, IL-1, IL-6); assay: Expression/production of the cytokines of inflammation; assay type: cell-based, human
[4] = test system: lymphoid cells (PBMC culture); assay: Determination of the amplified lymphoid cell population in a PBMC culture; assay type: cell-based, human; settings: HARP 1 μg/ml, PBMC culture 5 days
Description: as §2, with “5” for “3 or 7”, “of” for “of variable concentrations of”, “HARP” for “HARP ranging from 1 to 1000 ng/ml”, “peptides at concentrations” for “peptides”, “each” for “the legends”, “Examples described.” for “figures.”
Table II presents the effects of the HARP molecule tested at a concentration of 1 μg/ml on the proliferation of lymphoid cells.

IL-1β = assay: Expression of IL-1 by PBMCs (ELISA); assay type: cell-based, human; settings: HARP 1 to 1000 ng/ml, 3 or 7 days
Description: as §1, §2

TNF-α = assay: Expression of TNF-α by PBMCs (ELISA); assay type: cell-based, human; settings: HARP 1 to 1000 ng/ml, 3 or 7 days
Description: as §1, §2

IL-2 = IL-2 levels after incubation of PBMCs with HARP; assay type: cell-based, human; settings: after incubation of PBMCs with HARP factor
[5] = test system: PBMCs treated by an anti-CD3
NIH 3T3 cells = settings: read-out: Kd of strong affinity HARP binding sites; cited from earlier work
syndecan-3 = syndecan-3 (Rattus norvegicus, UniProt P33671); settings: read-out: apparent Kd; cited from earlier work
phosphacan = phosphacan (Rattus norvegicus, UniProt Q62656); settings: cited from earlier work
[6] = peptides, 7 days of incubation (FIG. 10)
[7] = added to PBMCs, result not shown
[8] = 7 days, anti-CD3 1/100, HARP 1 ng/ml

phosphacan, sequence (Q62656 25-1616 isoform Q62656-3 limits assumed): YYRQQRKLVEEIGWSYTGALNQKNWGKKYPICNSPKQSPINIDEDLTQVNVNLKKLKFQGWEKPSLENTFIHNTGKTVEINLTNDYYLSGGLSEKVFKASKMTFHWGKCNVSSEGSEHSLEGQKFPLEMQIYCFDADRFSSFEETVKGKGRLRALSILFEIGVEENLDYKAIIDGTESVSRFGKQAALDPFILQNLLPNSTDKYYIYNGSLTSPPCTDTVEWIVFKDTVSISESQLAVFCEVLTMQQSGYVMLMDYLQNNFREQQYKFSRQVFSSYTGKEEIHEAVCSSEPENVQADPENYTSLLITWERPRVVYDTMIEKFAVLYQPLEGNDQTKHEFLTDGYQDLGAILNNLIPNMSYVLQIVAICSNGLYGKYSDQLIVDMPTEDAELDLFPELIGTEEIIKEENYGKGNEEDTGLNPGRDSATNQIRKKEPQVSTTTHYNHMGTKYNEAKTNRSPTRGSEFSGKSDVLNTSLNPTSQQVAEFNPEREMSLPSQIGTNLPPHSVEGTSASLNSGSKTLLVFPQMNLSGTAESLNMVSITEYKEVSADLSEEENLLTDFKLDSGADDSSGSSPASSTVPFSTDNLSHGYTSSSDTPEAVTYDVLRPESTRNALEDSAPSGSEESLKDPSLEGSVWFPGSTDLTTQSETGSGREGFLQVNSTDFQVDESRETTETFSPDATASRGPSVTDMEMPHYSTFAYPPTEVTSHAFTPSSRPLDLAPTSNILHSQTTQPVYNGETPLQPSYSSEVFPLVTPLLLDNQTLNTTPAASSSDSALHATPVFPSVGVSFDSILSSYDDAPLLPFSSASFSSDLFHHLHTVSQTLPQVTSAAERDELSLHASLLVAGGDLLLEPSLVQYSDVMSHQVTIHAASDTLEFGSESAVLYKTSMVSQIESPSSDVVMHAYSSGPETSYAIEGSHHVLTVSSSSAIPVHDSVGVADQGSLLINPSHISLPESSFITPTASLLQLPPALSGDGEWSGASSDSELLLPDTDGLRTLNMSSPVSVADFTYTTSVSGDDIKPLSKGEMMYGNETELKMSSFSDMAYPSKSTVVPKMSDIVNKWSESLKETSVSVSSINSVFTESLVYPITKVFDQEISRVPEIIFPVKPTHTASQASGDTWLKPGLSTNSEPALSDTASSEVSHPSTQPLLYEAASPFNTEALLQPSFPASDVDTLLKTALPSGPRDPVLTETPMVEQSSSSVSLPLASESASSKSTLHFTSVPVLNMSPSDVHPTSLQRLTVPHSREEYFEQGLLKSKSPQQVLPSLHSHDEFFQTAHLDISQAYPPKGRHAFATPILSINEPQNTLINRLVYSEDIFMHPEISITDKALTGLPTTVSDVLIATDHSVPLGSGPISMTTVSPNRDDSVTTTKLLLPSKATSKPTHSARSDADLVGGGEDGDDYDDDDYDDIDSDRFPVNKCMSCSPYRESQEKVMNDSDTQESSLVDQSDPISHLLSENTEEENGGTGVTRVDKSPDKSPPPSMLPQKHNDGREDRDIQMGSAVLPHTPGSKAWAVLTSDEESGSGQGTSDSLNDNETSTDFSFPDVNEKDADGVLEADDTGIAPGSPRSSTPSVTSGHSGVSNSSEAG
syndecan-3, sequence (P33671 45-442): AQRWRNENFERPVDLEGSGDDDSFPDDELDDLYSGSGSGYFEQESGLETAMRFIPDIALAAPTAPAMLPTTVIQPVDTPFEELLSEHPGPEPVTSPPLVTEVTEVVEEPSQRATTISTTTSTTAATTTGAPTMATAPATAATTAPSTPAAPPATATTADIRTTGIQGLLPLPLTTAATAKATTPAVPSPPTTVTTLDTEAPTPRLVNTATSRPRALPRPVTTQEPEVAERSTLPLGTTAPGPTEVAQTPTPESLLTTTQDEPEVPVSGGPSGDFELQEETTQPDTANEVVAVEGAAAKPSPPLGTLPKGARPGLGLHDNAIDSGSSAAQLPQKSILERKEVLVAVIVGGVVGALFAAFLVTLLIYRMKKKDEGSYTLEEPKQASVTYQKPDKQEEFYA

Molecule: NH2-AEAGKKEKPEKKVKKSDCGEW-COOH (H-AEAGKKEKPEKKVKKSDCGEW-OH) [Peptide 1]
- activation response of PBMCs compared to the HARP protein ([1]; 7 days): close to half that of HARP
- activation response of PBMCs compared to the control ([1]; 7 days, 1 μg/ml peptide (FIG. 6)): more than two times higher
- expression of IL-6 (IL-6; [6]): capable of stimulating the expression of IL-6
- number of mononucleated cells in treated muscle versus peptide 2 or PBS (soleus muscle): much higher

Molecule: GKKEKPEKKVKKSD [HARP peptide, N terminal peptide (amino acids 1-14) of human HARP obtained by recombination in a eukaryote expression system]
- Number of cells (HUVEC cells): 12,000 ± 14,000

Molecule: NH2-AESKKKKKEGKKQEKMLD-COOH (H-AESKKKKKEGKKQEKMLD-OH) [Peptide 2, peptide corresponding to the terminal COOH part of HARP; 18 amino acids]
- activation response of PBMCs compared to the HARP protein ([1]; 7 days): close to two times higher
- expression of IL-6 (IL-6; [6]): capable of stimulating the expression of IL-6

Molecule: tetanus toxin [reference compound]
- incorporated tritiated thymidine [2]: 43,000±500 cpm
- stimulation of incorporation of tritiated thymidine in relation to the control [2]: 71 times

Molecule: angiogenin: molecule presenting a homologous protein domain [reference compound]
- expression of the inflammatory cytokines [3, 7]: Augmentation of the expression

B1: MK: protein that exhibits 50% homology in amino acids with HARP (protein, UniProt P21741 21-143, looked up)
Midkine: VAKKKDKVKKGGPGSECAEWAWGPCTPSSKDCGVGFREGTCGAQTQRIRCRVPCNWKKEFGADCKYKFENWGACDGGTGTKVRQGTLKKARYNAQCQETIRVTKPCTPKTKAKAKAKKGKGKD
- stimulation of tritiated thymidine incorporation in PBMCs ([1]; MK 0.1 to 500 ng/ml): no induction; also recorded: No stimulation

B2: tat protein: molecule presenting a homologous protein domain (protein, UniProt P04608 1-86, looked up)
Protein Tat: MEPVDPRLEPWKHPGSQPKTACTNCYCKKCCFHCQVCFITKALGISYGRKKRRQRRRAHQNSQTHQASLSKQPTSQPRGDPTGPKE
- expression of the inflammatory cytokines [3, 7]: Augmentation of the expression

B3: HARP: angiogenic growth factor; human recombinant HARP protein produced in E. coli (protein, UniProt P21246 33-168, looked up)
Pleiotrophin: GKKEKPEKKVKKSDCGEWQWSVCVPTSGDCGLGTREGTRTGAECKQTMKTQRCKIPCNWKKQFGAECKYQFQAWGECDLNTALKTRTGSLKRALHNAECQKTVTISKPCGKLTKPKPQAESKKKKKEGKKQEKMLD
- concentration at which active on the proliferation of lymphocytes [1]: ~10 pM
- increase in the number of cells in relation to the untreated control ([1]; HARP 100 ng/ml, experiment no. 7): 2.9 times
- HARP concentration at which maximum effect is attained ([1]; dose-response 0.1 to 500 ng/ml): 1 ng/mL
- CCD2 positive cells [4]: 95%
- CCD4+ CD45RA+ cells [4]: 15%
- CCD4+ CD45RO+ cells [4]: 49%
- CCD4 positive cells [4]: 68%
- CCD8 positive cells [4]: 22%
- CCD16/56 positive cells [4]: 18%
- CCD19 positive cells [4]: 4%
- CCD25 positive cells [4]: 47%
- CCD45RA positive cells [4]: 34%
- CCD45RO positive cells [4]: 64%
- Variation of CCD4+ CD45RA+ versus control [4]: −31%
- Variation of CCD4+ CD45RO+ versus control [4]: +133%
- Variation of CCD45RO versus control [4]: +113%
- RA/RO (CCD4+ CD45RA+ / CCD4+ CD45RO+) ([4]; CD4+ cells): 0.3 ratio
- RA/RO (CCD45RA / CCD45RO) ([4]; all cells): 0.5 ratio
- expression of IL-1β (IL-1β): capable of inducing in a dose-dependent manner
- expression of TNF-α (TNF-α): capable of inducing in a dose-dependent manner
- expression of IL-6 (IL-6; HARP 1 to 1000 ng/ml, 3 or 7 days): capable of inducing in a dose-dependent manner
- expression of the inflammatory cytokines ([3]; HARP molecule denatured): No expression
- stimulation of the production of cytokines of inflammation ([3]; in vitro and in vivo): more than 100 times
- IL-2 levels (IL-2): no increase
- Number of cells (HUVEC cells): 129,000 ± 26,000
- incorporated tritiated thymidine [5, 8]: 3500 cpm
- stimulation of incorporation of tritiated thymidine in relation to the control [5, 8]: 5.8 times
- incorporation of thymidine ([5]; HARP 10 and 100 ng/ml in the presence of anti-CD3): a weaker and a very low incorporation
- cellular mortality ([5]; HARP alone at 10 and 100 ng/ml): not seen
- cell mortality [2]: high cell mortality
- incorporated tritiated thymidine ([2]; 7 days): 3500±200 cpm
- stimulation of incorporation of tritiated thymidine in relation to the control ([2]; 7 days): 5.8 times
- cell death (HIV; HARP 100 ng/ml, PBMCs from an AIDS patient): noteworthy cell death
- HARP concentration at which production of viral antigen p24 is maximal (HIV; PBMCs from an AIDS patient (CD4<200/mm^3), 3 days, HARP 0.1-100 ng/ml): 1 ng/mL
- Kd (NIH 3T3 cells): 0.6 nM
- Kd (syndecan-3): 0.8 nM
- Kd (phosphacan; read-out: Kd, binding sites of strong affinity): 0.25 nM
- Kd (phosphacan; read-out: Kd, binding sites of weak affinity): 3 nM
